Source: publication PMC9159944

How the values were obtained:
[1] = biological target: Chimeric S. cerevisiae MCM^(Mcm3-YDF, ybbR-LD655-Mcm6) with a humanized Mcm3 subunit, loaded on origin DNA (S. cerevisiae | human) (UniProt P29469)
[2] = biological target: S. cerevisiae recombinant MCM^ybbR-LD655-Mcm6 (MCM2–MCM7 complex), loaded on origin DNA (S. cerevisiae) (UniProt P29469)

UniProt P29469, sequence (P29469 whole entry, looked up, change not shown, tested part not stated): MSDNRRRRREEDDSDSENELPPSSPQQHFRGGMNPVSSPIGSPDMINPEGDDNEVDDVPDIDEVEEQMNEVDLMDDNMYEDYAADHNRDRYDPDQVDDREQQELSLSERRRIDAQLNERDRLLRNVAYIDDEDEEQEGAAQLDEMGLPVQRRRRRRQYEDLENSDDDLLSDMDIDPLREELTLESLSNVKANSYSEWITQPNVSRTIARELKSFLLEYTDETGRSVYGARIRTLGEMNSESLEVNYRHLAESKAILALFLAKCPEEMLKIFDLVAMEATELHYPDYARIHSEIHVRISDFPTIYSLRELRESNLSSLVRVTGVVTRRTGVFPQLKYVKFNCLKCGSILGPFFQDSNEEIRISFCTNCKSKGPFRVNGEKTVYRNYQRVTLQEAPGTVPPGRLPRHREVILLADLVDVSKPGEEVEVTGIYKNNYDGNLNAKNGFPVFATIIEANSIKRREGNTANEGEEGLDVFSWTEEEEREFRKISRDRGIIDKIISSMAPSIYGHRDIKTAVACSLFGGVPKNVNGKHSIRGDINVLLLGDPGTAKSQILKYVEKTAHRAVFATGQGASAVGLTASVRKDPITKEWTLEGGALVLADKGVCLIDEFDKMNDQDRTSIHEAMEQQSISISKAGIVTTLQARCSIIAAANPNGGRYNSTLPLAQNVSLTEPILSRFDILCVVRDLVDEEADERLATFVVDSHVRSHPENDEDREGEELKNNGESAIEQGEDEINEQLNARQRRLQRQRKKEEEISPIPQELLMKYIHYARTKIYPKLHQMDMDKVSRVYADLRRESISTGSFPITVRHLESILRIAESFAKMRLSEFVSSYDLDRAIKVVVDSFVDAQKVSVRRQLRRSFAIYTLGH

fraction of cohesin pausing of the total observation time on encountering origin-bound MCM (single-molecule cohesin translocation assay on licensed DNA, 0.15 M NaCl) [1]: 43%
fraction of cohesin pausing of the total observation time on encountering origin-bound MCM (single-molecule cohesin translocation assay on licensed DNA, 0.15 M NaCl) [2]: 6.4%
Substance: Human recombinant cohesin^(STAG1, SCC1-Halo) (from UniProt Q14683 1-1233; Q9UQE7 1-1217; O60216 1-631; Q8WVM7 1-1258) (complex)
